In patent publication US20140186344A1 (TRUSTEES OF BOSTON UNIVERSITY, published 2014):
Where a chain is given by its changes, count along the chain named. No end group written: not given here. *: point of attachment. 125I = [125I]*

What was measured:
[1] = target: T1, mouse Dear (Dual Endothelin-1/Angiotensin II Receptor) (mouse, UniProt Q2QKR2 1-127); test: 125I-ET-1 binding to membranes of Cos-1 cells expressing mouse Dear
T1 construct: Endogenous protein in mouse kidney membranes and embryos was used for the antibody work; also called mouse receptor polypeptide; mouse Dear polypeptide
T1 sequence: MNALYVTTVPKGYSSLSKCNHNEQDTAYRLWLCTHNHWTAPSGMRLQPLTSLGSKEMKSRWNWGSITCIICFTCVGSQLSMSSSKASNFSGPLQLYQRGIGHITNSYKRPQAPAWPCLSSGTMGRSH

[2] = target: T2, Dahl R Dear S44P/M74T variant (rat Dual Endothelin-1/Angiotensin II Receptor) (rat (Dahl R/JRHsd), UniProt D3ZGZ6 1-127); test: saturation radioligand binding, Cos1 membranes; KL, low affinity binding site; the column head says nM, and the unit is doubtful
T2 construct: It was assayed as membranes of transfected Cos1 cells and as kidney membranes on blots; also called Dahl R receptor; Cos1-R
T2 chain: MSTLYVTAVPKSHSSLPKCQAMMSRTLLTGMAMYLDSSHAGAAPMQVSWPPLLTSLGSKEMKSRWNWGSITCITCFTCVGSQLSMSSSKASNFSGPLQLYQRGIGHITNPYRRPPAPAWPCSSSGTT
Protocol: (§1) Binding of [¹²⁵I]Tyr⁴-angiotensin II and [¹²⁵I]Tyr¹³-endothelin-1 to COS-1 membranes was performed by a rapid filtration method (32, 50). Briefly, [¹²⁵I]Tyr⁴-angiotensin II (0.25˜6.5 nM) or [¹²⁵I]Tyr¹³-endothelin-1 (0.045˜1.46 nM) was incubated with membranes (100 μg) for 20 min at 37° C. in 100 μl buffer A (5 mM MgCl₂, 0.2 mM EDTA, 10 mg/ml BSA, 10 mM Hepes, pH7.4). Binding reactions were terminated by the addition of 1 ml ice-cold buffer A and immediately filtered through a Whatman GF/C filter (presoaked overnight at 4° C. in 10 mg/ml BSA) and subsequently washed with 15 ml ice-cold buffer A. Specific binding was determined as the difference between the total radioactivity bound to membranes and the radioactivity bound to blanks containing 1 μM AngII or 1 μM ET-1. The dissociation constant (Kd) and maximum ligand-binding sites (Bₘₐₓ) were determined using Hill plot analysis (55). Hill coefficient values (h) were calculated from the relationship ln [B/(Bₘₐₓ−B)]=h ln [free Radioligand]−ln Kd. […] The data were best fit by two affinity states determined by Scatchard plot analysis; KH and KL designate the Kd for high- and low-affinity states of the receptor, respectively (44). Most results are expressed as the mean±SE (standard error) from three to five independent experiments.

[3] = target: T3, Dahl S Dear S44/M74 variant (rat Dual Endothelin-1/Angiotensin II Receptor) (rat (Dahl S/JRHsd), UniProt D3ZGZ6 1-127); test: as above
T3 construct: It was assayed as membranes of transiently transfected Cos1 cells, and as rat kidney membranes on blots; also called Dahl S receptor; Cos1-S
T3 chain: T2 chain with P44S, T74M
Protocol: as §1

[4] = target: T3, Dahl S Dear S44/M74 variant (rat Dual …); test: saturation radioligand binding, Cos1 membranes; comparison of KH
Protocol: as §1

[5] = target: T2, Dahl R Dear S44P/M74T variant (rat Dual …); test: saturation radioligand binding, Cos1 membranes; KH, high affinity binding site; the column head says nM but paragraph 132 gives this value in pM
Protocol: as §1

[6] = target: T3, Dahl S Dear S44/M74 variant (rat Dual …); test: as above
Protocol: as §1

binding result [1]: binds | Kd [2]: 0.836 nM | Kd [3]: 0.45 nM | fold increased affinity compared to the Dahl R Dear S44P/M74T variant [4]: 3 fold | Kd [5]: 0.012 nM | Kd [6]: 0.00442 nM
B1: [125I]Tyr13-endothelin-1 (peptide, UniProt P05305 53-73, looked up)
peptide: CSCSSLMDKECVY(125I)FCHLDIIW
modifications: ends and bridges not checked
notes: mature; Radiolabelled ligand; also called ET-1
